Measurements: the supplement of paper PMC10724198
± gives the standard deviation of the averaged measurements.

Key:
[1] = test system: Saccharomyces cerevisiae; assay: protein stability index of tFT-peptide fusion (C-terminal peptide) (PSI (0-1 scale)); higher = more stable (slower turnover)
Procedure: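 MPS profiling in S. cerevisiae of the tFT-X12 degron library: putative degron peptides plus stable controls, 12 aa, fused to the C-terminus of a sfGFP-mCherry timer. Cells are FACS-sorted into 8 mCherry/sfGFP bins and deep-sequenced. PSI runs from 0 (unstable) to 1 (stable). Backgrounds are wild type, das1Δ and doa10Δ at 30 °C, and wild type, das1Δ, cdc34-1 and cdc53-1 at 37 °C; 2-3 technical replicates each.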

[2] = test system: Saccharomyces cerevisiae; assay: as above; conditions: genetic background: wild type; temperature: 30 C
[3] = genetic background: cdc34-1, temperature: 37 C
[4] = genetic background: cdc53-1, temperature: 37 C
[5] = genetic background: das1 deletion, temperature: 30 C
[6] = genetic background: das1 deletion, temperature: 37 C
[7] = genetic background: doa10 deletion, temperature: 30 C
[8] = genetic background: wild type, temperature: 30 C
[9] = genetic background: wild type, temperature: 37 C
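Also: PSI is a weighted mean of sequencing reads over stability bins, variants kept only with over 10 reads, mCherry proximal and sfGFP distal, peptide attached via GGGS linker.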

Row | Sequence | protein stability index [1, 3] | protein stability index [1, 4] | protein stability index [1, 5] | protein stability index [1, 6] | protein stability index [1, 7] | protein stability index [1, 8] | protein stability index [1, 9] | protein stability index [2]
1 | LGVVLFCFRFCR | 0.464 ± 0.0074 | 0.556 ± 0.028 | 0.391 ± 0.022 | 0.598 ± 0.022 | 0.353 ± 0.0068 | 0.371 ± 0.027 | 0.543 ± 0.019 | 0.477 ± 0.005
2 | LHFHIYLIISPF | 0.117 ± 0.0026 | 0.137 ± 0.022 | 0.2 ± 0.02 | 0.311 ± 0.0072 | 0.238 ± 0.011 | 0.186 ± 0.034 | 0.261 ± 0.01 | 0.294 ± 0.012
3 | LHLLFLPFVVCL | 0.212 ± 0.017 | 0.2458 ± 0.0015 | 0.216 ± 0.037 | 0.348 ± 0.027 | 0.0556 ± 0.012 | 0.0711 ± 0.025 | 0.113 ± 0.014 | 0.108 ± 0.02
4 | LIFFFCSWVFRF | 0.3037 ± 0.00048 | 0.291 ± 0.032 | 0.402 ± 0.061 | 0.464 ± 0.031 | 0.327 ± 0.044 | 0.272 ± 0.038 | 0.365 ± 0.0071 | 0.377 ± 0.012
5 | LIFLSISFISSL | 0.1 ± 0.0059 | 0.245 ± 0.049 | 0.168 ± 0.036 | 0.316 ± 0.028 | 0.104 ± 0.043 | 0.15 ± 0.037 | 0.286 ± 0.0096 | 0.295 ± 0.05
6 | LILFMLLSFLTT | 0.371 ± 0.013 | 0.409 ± 0.042 | 0.294 ± 0.028 | 0.419 ± 0.018 | 0.281 ± 0.016 | 0.293 ± 0.025 | 0.3954 ± 0.0026 | 0.373 ± 0.032
7 | LIRVLRVLRHSS | 0.607 ± 0.015 | 0.6917 ± 0.0043 | 0.638 ± 0.018 | 0.7225 ± 0.0011 | 0.167 ± 0.0097 | 0.194 ± 0.021 | 0.382 ± 0.045 | 0.375 ± 0.056
8 | LLAVIVWIVPPA | 0.241 ± 0.01 | 0.35 ± 0.0085 | 0.233 ± 0.023 | 0.423 ± 0.0079 | 0.204 ± 0.0016 | 0.222 ± 0.028 | 0.39 ± 0.0093 | 0.304 ± 0.042
9 | LLCRVSRTRILC | 0.478 ± 0.026 | 0.533 ± 0.0097 | 0.426 ± 0.021 | 0.58 ± 0.0099 | 0.104 ± 0.012 | 0.128 ± 0.013 | 0.166 ± 0.022 | 0.227 ± 0.013
10 | LLDIYFILLVWF | 0.263 ± 0.02 | 0.237 ± 0.03 | 0.267 ± 0.023 | 0.399 ± 0.024 | 0.359 ± 0.021 | 0.258 ± 0.019 | 0.432 ± 0.066 | 0.346 ± 0.29
11 | LLFLWVLFLPFA | 0.4449 ± 0.00067 | 0.469 ± 0.005 | 0.346 ± 0.036 | 0.5234 ± 0.0037 | 0.361 ± 0.012 | 0.342 ± 0.026 | 0.472 ± 0.0041 | 0.363 ± 0.045
12 | LLFPRVLVLCFS | 0.034 ± 0.011 | 0.0512 ± 0.0018 | 0.124 ± 0.037 | 0.154 ± 0.0093 | 0.105 ± 0.016 | 0.117 ± 0.024 | 0.116 ± 0.012 | 0.183 ± 0.029
13 | LLILIVNLRRIG | 0.376 ± 0.0085 | 0.556 ± 0.069 | 0.36 ± 0.04 | 0.607 ± 0.028 | 0.1983 ± 0.0009 | 0.235 ± 0.011 | 0.444 ± 0.025 | 0.281 ± 0.052
14 | LLISPFLFLLVC | 0.0704 ± 0.043 | 0.0371 ± 0.002 | 0.0907 ± 0.02 | 0.0981 ± 0.022 | 0.0594 ± 0.018 | 0.0605 ± 0.014 | 0.0515 ± 0.00088 | 0.0803 ± 0.024
15 | LLLLGVSLFLVR | 0.282 ± 0.0053 | 0.378 ± 0.011 | 0.265 ± 0.019 | 0.454 ± 0.0081 | 0.223 ± 0.013 | 0.255 ± 0.018 | 0.4257 ± 0.0031 | 0.3657 ± 0.00075
16 | LLLPSAPFLFLL | 0.305 ± 0.015 | 0.256 ± 0.0043 | 0.307 ± 0.041 | 0.435 ± 0.029 | 0.3387 ± 0.0022 | 0.201 ± 0.017 | 0.288 ± 0.014 | 0.2954 ± 0.0012
17 | LLMLWWARVFSG | 0.296 ± 0.032 | 0.395 ± 0.045 | 0.298 ± 0.015 | 0.408 ± 0.0072 | 0.209 ± 0.016 | 0.243 ± 0.036 | 0.35 ± 0.0075 | 0.329 ± 0.0066
18 | LLVFWRLWWSLS | 0.248 ± 0.035 | 0.334 ± 0.011 | 0.251 ± 0.034 | 0.429 ± 0.028 | 0.081 ± 0.026 | 0.0903 ± 0.018 | 0.128 ± 0.007 | 0.157 ± 0.0075
19 | LLVKFTFLIIFT | 0.146 ± 0.0079 | 0.257 ± 0.089 | 0.191 ± 0.011 | 0.31 ± 0.019 | 0.27 ± 0.02 | 0.2 ± 0.015 | 0.2767 ± 0.0024 | 0.266 ± 0.025
20 | LLVLPFFSLSRF | 0.896 ± 0.028 | 0.90351 ± 0.00018 | 0.774 ± 0.0081 | 0.8734 ± 0.0026 | 0.748 ± 0.024 | 0.763 ± 0.017 | 0.852 ± 0.019 | 0.816 ± 0.01

Row | Sequence | protein stability index [1, 3] | protein stability index [1, 4] | protein stability index [1, 5] | protein stability index [1, 6] | protein stability index [1, 7] | protein stability index [1, 8] | protein stability index [1, 9] | protein stability index [2]
21 | LLVVFSCFTFMF | 0.259 ± 0.0096 | 0.399 ± 0.042 | 0.277 ± 0.032 | 0.476 ± 0.0058 | 0.254 ± 0.027 | 0.279 ± 0.028 | 0.449 ± 0.022 | 0.38 ± 0.037
22 | LMLGARVSRRIH | 0.64 ± 0.082 | 0.687 ± 0.015 | 0.673 ± 0.026 | 0.707 ± 0.026 | 0.227 ± 0.02 | 0.263 ± 0.049 | 0.5065 ± 0.0015 | 0.402 ± 0.0098
23 | LNALSHCRAICS | 0.632 ± 0.027 | 0.687 ± 0.0091 | 0.604 ± 0.023 | 0.692 ± 0.015 | 0.238 ± 0.0073 | 0.268 ± 0.028 | 0.462 ± 0.0055 | 0.379 ± 0.039
24 | LPASLSLWPLLC | 0.4736 ± 0.0023 | 0.604 ± 0.025 | 0.537 ± 0.019 | 0.668 ± 0.012 | 0.0836 ± 0.017 | 0.0983 ± 0.017 | 0.127 ± 0.015 | 0.1137 ± 0.0011
25 | LPPHLPFPLSAA | 0.657 ± 0.0098 | 0.7225 ± 0.0025 | 0.638 ± 0.0075 | 0.724 ± 0.019 | 0.43 ± 0.0083 | 0.462 ± 0.019 | 0.621 ± 0.0089 | 0.383 ± 0.011
26 | LPSPLLFLPALF | 0.708 ± 0.017 | 0.7877 ± 0.0075 | 0.667 ± 0.025 | 0.778 ± 0.055 | 0.405 ± 0.011 | 0.436 ± 0.011 | 0.614 ± 0.017 | 0.466 ± 0.014
27 | LQSVAFERGGPD | 0.687 ± 0.017 | 0.736 ± 0.0092 | 0.649 ± 0.0084 | 0.729 ± 0.015 | 0.647 ± 0.026 | 0.661 ± 0.0084 | 0.7194 ± 0.0071 | 0.727 ± 0.018
28 | LRSVVFFCRTLL | 0.677 ± 0.045 | 0.7436 ± 0.0044 | 0.623 ± 0.014 | 0.731 ± 0.013 | 0.3373 ± 0.0013 | 0.362 ± 0.015 | 0.566 ± 0.017 | 0.5 ± 0.0099
29 | LSFFDYVLLQIA | 0.556 ± 0.03 | 0.58 ± 0.029 | 0.462 ± 0.032 | 0.635 ± 0.0073 | 0.166 ± 0.013 | 0.199 ± 0.028 | 0.317 ± 0.027 | 0.285 ± 0.01
30 | LSLGVGSDAEGG | 0.687 ± 0.06 | 0.736 ± 0.015 | 0.64 ± 0.02 | 0.743 ± 0.031 | 0.646 ± 0.021 | 0.645 ± 0.007 | 0.712 ± 0.0096 | 0.549 ± 0.17
31 | LSYRFVFRFLLF | 0.543 ± 0.067 | 0.592 ± 0.0035 | 0.525 ± 0.013 | 0.573 ± 0.014 | 0.39 ± 0.017 | 0.372 ± 0.027 | 0.472 ± 0.0083 | 0.421 ± 0.0094
32 | LVCLFFLSSLFF | 0.547 ± 0.05 | 0.606 ± 0.0081 | 0.495 ± 0.046 | 0.602 ± 0.022 | 0.46 ± 0.016 | 0.464 ± 0.02 | 0.58 ± 0.017 | 0.4609 ± 0.0043
33 | LVCLVASCVRWL | 0.453 ± 0.022 | 0.533 ± 0.0085 | 0.359 ± 0.037 | 0.5664 ± 0.0041 | 0.237 ± 0.0034 | 0.272 ± 0.027 | 0.4608 ± 0.0029 | 0.357 ± 0.019
34 | LVGVLLAVWSVV | 0.2387 ± 0.00038 | 0.294 ± 0.039 | 0.249 ± 0.039 | 0.412 ± 0.0087 | 0.168 ± 0.0025 | 0.197 ± 0.019 | 0.338 ± 0.045 | 0.308 ± 0.017
35 | LVLGLYGVWLVV | 0.262 ± 0.005 | 0.179 ± 0.022 | 0.254 ± 0.026 | 0.4104 ± 0.0027 | 0.355 ± 0.015 | 0.243 ± 0.024 | 0.3561 ± 0.0035 | 0.345 ± 0.015
36 | LVMYRSALIRGH | 0.526 ± 0.039 | 0.529 ± 0.042 | 0.445 ± 0.0092 | 0.5693 ± 0.0033 | 0.3624 ± 0.00052 | 0.396 ± 0.03 | 0.525 ± 0.01 | 0.462 ± 0.05
37 | LVSWAWIWIFVF | 0.251 ± 0.057 | 0.354 ± 0.022 | 0.253 ± 0.039 | 0.417 ± 0.0085 | 0.171 ± 0.0065 | 0.194 ± 0.022 | 0.32239 ± 2.4e-05 | 0.226 ± 0.054
38 | LVSYHKMAISSF | 0.595 ± 0.017 | 0.58 ± 0.019 | 0.436 ± 0.022 | 0.626 ± 0.047 | 0.421 ± 0.0095 | 0.44 ± 0.022 | 0.571 ± 0.0095 | 0.47 ± 0.051
39 | LWWTRVILYGYI | 0.51 ± 0.0061 | 0.571 ± 0.021 | 0.456 ± 0.027 | 0.5496 ± 0.0039 | 0.34 ± 0.0087 | 0.353 ± 0.016 | 0.445 ± 0.013 | 0.387 ± 0.036
